Experimental data as given in patent US20260000736A1, “PURIFIED LACTOFERRIN COMPOSITIONS AND METHODS OF USE” (Lactea Therapeutics LLC, priority 2023, published 2026).
“Also recorded” adds a separate entry of the source.

Experiments:
[1] = system: ECM of primary buccal cells; assay: ECM association by immunofluorescence in primary buccal cells; format: cell-based; conditions: 100 µg/mL for 1 hr at 37 C
Procedure: Primary buccal cells were next cultured according to a standard protocol (e.g., see Russo et al. Cytotechnology. 2016 October; 68(5): 2105-2114; herein incorporated by reference for all purposes). […] Immunofluorescence imaging was performed as previously described.

[2] = Differential Scanning Calorimetry (DSC) of apolactoferrin and hololactoferrin forms; format: physicochemical
Procedure: Di[…] Calorimetry (DSC) was used to assess the hololactoferrin and apolactoferrin forms through monitoring unfolding temperatures of lactoferrin samples using a nanoDSC (TA Instruments, Lindon, UT) according to standard DSC protocols known to those of skill in the art (e.g., see Hinz et al “M[…] […] OF […] ON […] DI[…] CALORIMETRY”; herein incorporated by reference for all purposes.
API-E2 Lactoferrin (10 mg/mL), produced as described herein, was assessed by DSC. […] The lack of other peaks indicates the lack of contaminants and impurities and can assess API-E2 as ˜100%. […] Additionally, the lack of other peaks also indicated the purity of API-E2 Lactoferrin. […] The API-E2 hololactoferrin peak has a Tm of 88.38+/−0.8 C and a delta H of 632.7+/−7.2 kJ/mol. The hololactoferrin natively accounted for on average 8.74+/−1.39% of the total API-E2 lactoferrin with apolactoferrin accounting for the rest in the samples tested. However, the hololactoferrin percentage can be naturally variable. The API-E2 was calculated by this technique to contain virtually 100% pure lactoferrin.
The assay was also performed with heat-treated API-E2 Lactoferrin. API-E2 Lactoferrin was heated across a range of 50-100° C.
Lab-grade standard lactoferrin and a commercially available supplement-grade lactoferrin were also assessed by DSC under the conditions used to assess API-E2 above.

E. coli 0157 [3] = assay: Bacterial growth inhibition, OD600 after 16 h; format: cell-based; conditions: 1 mg/mL Lf, 16 h at 37° C.
Procedure: As an analytical standard for the assessment of Lactoferrin (Lf) activity, 1 mg/mL Lf was added to 10∝CFU/mL E. coli 0157 in LB and incubated for 16 h at 37° C. Lactea Lactoferrin (Lactea-Lf) was produced as described in the above examples. Assessed were three independent lots of Lactea-Lf, impure samples which were generated by co-eluting Lactoperoxidase and Lactoferrin (co-elution), samples with degradation products generated by eluting Lactoferrin from old milk which was left for three days (Degradation Products), and a Sigma Aldrich Lactoferrin L9507 (Research Standard). As shown in FIG. 16 and quantified in Table 5, in the Lactea-Lf lots assessed, less than 5% the total growth of bacteria was observed as assessed by OD600 relative to the growth of untreated bacteria under these conditions. In this case, co-elution samples were samples which have a detectable peak of LPO as observable in MALDI-TOF M/S or HPLC. Degradation Products had identifiable degradation peaks as observed in HPLC or DSC.

lactoperoxidase (LPO) = assay: Enzymatic colorimetric assay for lactoperoxidase (LPO) activity; format: biochemical; conditions: colorimetric peroxidase substrate
From the text: An enzymatic assay for lactoperoxidase (LPO) activity was developed utilizing a molecule which in the presence of peroxidase activity turns a blue color.

E. coli 0157 [4] = assay: Bacterial growth timecourse, OD600; format: cell-based; conditions: 1 mg/mL; for Bacterial Growth Timecourse, Replicate 1 / Bacterial Growth Timecourse, Replicate 2 / Bacterial Growth Timecourse, Replicate 3: OD600 relative to no treatment control at 24 hours
Procedure: For a more detailed comparison of Lactea-Lf antimicrobial activity relative to the Sigma Aldrich Lactoferrin, Lactea-Lf and Sigma Aldrich Lactoferrin were incubated at 1 mg/mL with for E. coli 0157 in LB seeded at 10∝CFU/mL. […] Results were quantified and reported as a percent of the OD600 of the no treatment control at 24 hours for all timepoints.

E. coli 0157 [5] = assay: Biofilm formation, crystal violet assay; format: cell-based; conditions: for Biofilm Inhibition, Replicate 1 / Biofilm Inhibition, Replicate 2 / Biofilm Inhibition, Replicate 3: 24 hours
Procedure: Lactoferrin was assessed for biofilm growth inhibition. To study the relative concentration dependent efficacy of Lactea-Lf and the Sigma Aldrich research standard Lactoferrin in inhibiting biofilm formation, Lf was added at concentrations ranging from 2 mg/mL to 0.31 mg/mL (2-fold serial dilution curve) to E. coli 0157 in LB seeded at 10∝CFU/mL and incubated for 37° C. for 24 hours. Lactea Lactoferrin (Lactea-Lf) was produced as described in the above examples. The biofilm was stained using a standard crystal violet assay. A quantification of the inhibition of biofilm formation (FIG. 18A) and an image of a representative plate (FIG. 18B) are shown.

[6] = DSC of additional batches, ratio of apo to holo-Lactoferrin; format: physicochemical; conditions: 5 mg/mL, 30° C. to 100° C. range
Procedure: Additional batches of Lactea-Lf as described in the above examples and the relative ratio of apo to holo-Lactoferrin was assessed by Differential Scanning Calorimetry (DSC). Lactoferrin samples were loaded at 5 mg/mL into a NanoDSC (TI Instruments) and measured in the 30° C. to 100° C. range. […] It is likely that these peaks are smaller as the sample is highly impure or contains already denatured product.

SARS-CoV-2 = SARS-CoV-2 Cytopathic Effect (CPE) reduction assay in Vero E6 cells; format: cell-based; conditions: Vero E6 cells, MOI of 0.001, neutral red, three days post-infection
[7] = 10∝CFU/mL E. coli 0157 in LB, OD600 relative to untreated

B1: Lab-grade standard lactoferrin: commercially available lab-grade standard lactoferrin (protein, UniProt P24627 20-708, looked up)
Lactotransferrin: APRKNVRWCTISQPEWFKCRRWQWRMKKLGAPSITCVRRAFALECIRAIAEKKADAVTLDGGMVFEAGRDPYKLRPVAAEIYGTKESPQTHYYAVAVVKKGSNFQLDQLQGRKSCHTGLGRSAGWIIPMGILRPYLSWTESLEPLQGAVAKFFSASCVPCIDRQAYPNLCQLCKGEGENQCACSSREPYFGYSGAFKCLQDGAGDVAFVKETTVFENLPEKADRDQYELLCLNNSRAPVDAFKECHLAQVPSHAVVARSVDGKEDLIWKLLSKAQEKFGKNKSRSFQLFGSPPGQRDLLFKDSALGFLRIPSKVDSALYLGSRYLTTLKNLRETAEEVKARYTRVVWCAVGPEEQKKCQQWSQQSGQNVTCATASTTDDCIVLVLKGEADALNLDGGYIYTAGKCGLVPVLAENRKSSKHSSLDCVLRPTEGYLAVAVVKKANEGLTWNSLKDKKSCHTAVDRTAGWNIPMGLIVNQTGSCAFDEFFSQSCAPGADPKSRLCALCAGDDQGLDKCVPNSKEKYYGYTGAFRCLAEDVGDVAFVKNDTVWENTNGESTADWAKNLNREDFRLLCLDGTRKPVTEAQSCHLAVAPNHAVVSRSDRAAHVKQVLLHQQALFGKNGKNCPDKFCLFKSETKNLLFNDNTECLAKLGGRPTYEEYLGTEYVTAIANLKKCSTSPLLEACAFLTR
ECM association of Lactoferrin (immunofluorescence imaging) [1]: only limited ECM association | Tm, Apolactoferrin peak ([2]; 10 mg/mL): 55 C | Tm, Hololactoferrin peak ([2]; 10 mg/mL): 85 C | estimated ratio of the apolactoferrin to hololactoferrin peak ([2]; conditions as for API-E2): nearly equal

B2: heat-treated API-E2 Lactoferrin: API-E2 Lactoferrin heated across a range of 50-100° C. (protein, UniProt P24627 20-708, looked up)
Lactotransferrin: B1 Lactotransferrin
modifications: heat-treated
detectable apolactoferrin and hololactoferrin DSC peaks ([2]; conditions as for API-E2): loss in both detectable peaks

B3: Sigma-Lf: Sigma Aldrich Lactoferrin L9507 (Research Standard) (protein, UniProt P24627 20-708, looked up)
Lactotransferrin: B1 Lactotransferrin
Relative Bacterial Growth, Replicate 1 (E. coli 0157 [3]; [7]): 0.8089 | Relative Bacterial Growth, Replicate 2 (E. coli 0157 [3]; [7]): 0.8162 | Relative Bacterial Growth, Replicate 3 (E. coli 0157 [3]; [7]): 0.7726 | antibacterial activity compared with other samples (E. coli 0157 [3]): less activity than any lot of co-elution or degraded product | LPO enzymatic activity (blue color reaction) (lactoperoxidase (LPO)): does not result in a positive enzymatic reaction | time at which bacterial growth became observable / evident (E. coli 0157 [4]; E. coli 0157 in LB): 6 h | Bacterial Growth Timecourse, Replicate 1 (E. coli 0157 [4]; 3 h): 0.04197 | Bacterial Growth Timecourse, Replicate 2 (E. coli 0157 [4]; 3 h): 0.0345 | Bacterial Growth Timecourse, Replicate 3 (E. coli 0157 [4]; 3 h): 0.04414 | Bacterial Growth Timecourse, Replicate 1 (E. coli 0157 [4]; 6 h): 0.6058 | Bacterial Growth Timecourse, Replicate 2 (E. coli 0157 [4]; 6 h): 0.6264 | Bacterial Growth Timecourse, Replicate 3 (E. coli 0157 [4]; 6 h): 0.6363 | Bacterial Growth Timecourse, Replicate 1 (E. coli 0157 [4]; 9 h): 0.6012 | Bacterial Growth Timecourse, Replicate 2 (E. coli 0157 [4]; 9 h): 0.6124 | Bacterial Growth Timecourse, Replicate 3 (E. coli 0157 [4]; 9 h): 0.6341 | Bacterial Growth Timecourse, Replicate 1 (E. coli 0157 [4]; 12 h): 0.6658 | Bacterial Growth Timecourse, Replicate 2 (E. coli 0157 [4]; 12 h): 0.6702 | Bacterial Growth Timecourse, Replicate 3 (E. coli 0157 [4]; 12 h): 0.6326 | Bacterial Growth Timecourse, Replicate 1 (E. coli 0157 [4]; 15 h): 0.6543 | Bacterial Growth Timecourse, Replicate 2 (E. coli 0157 [4]; 15 h): 0.6602 | Bacterial Growth Timecourse, Replicate 3 (E. coli 0157 [4]; 15 h): 0.6251 | Bacterial Growth Timecourse, Replicate 1 (E. coli 0157 [4]; 18 h): 0.6295 | Bacterial Growth Timecourse, Replicate 2 (E. coli 0157 [4]; 18 h): 0.6201 | Bacterial Growth Timecourse, Replicate 3 (E. coli 0157 [4]; 18 h): 0.599 | Bacterial Growth Timecourse, Replicate 1 (E. coli 0157 [4]; 21 h): 0.6512 | Bacterial Growth Timecourse, Replicate 2 (E. coli 0157 [4]; 21 h): 0.5981 | Bacterial Growth Timecourse, Replicate 3 (E. coli 0157 [4]; 21 h): 0.5984 | Bacterial Growth Timecourse, Replicate 1 (E. coli 0157 [4]; 24 h): 0.6668 | Bacterial Growth Timecourse, Replicate 2 (E. coli 0157 [4]; 24 h): 0.6205 | Bacterial Growth Timecourse, Replicate 3 (E. coli 0157 [4]; 24 h): 0.6407 | inhibition of biofilm formation, in words (E. coli 0157 [5]; E. coli 0157, 24 hours): only appears to demonstrate inhibition of biofilm in the low mg/mL range, but never completely eliminates biofilm formation | Biofilm Inhibition, Replicate 1 (E. coli 0157 [5]; [Lf] 0.031 mg/mL): 0.6588 | Biofilm Inhibition, Replicate 2 (E. coli 0157 [5]; [Lf] 0.031 mg/mL): 0.9283 | Biofilm Inhibition, Replicate 3 (E. coli 0157 [5]; [Lf] 0.031 mg/mL): 0.854 | Biofilm Inhibition, Replicate 1 (E. coli 0157 [5]; [Lf] 0.063 mg/mL): 0.2439 | Biofilm Inhibition, Replicate 2 (E. coli 0157 [5]; [Lf] 0.063 mg/mL): 0.1943 | Biofilm Inhibition, Replicate 3 (E. coli 0157 [5]; [Lf] 0.063 mg/mL): 0.3058 | Biofilm Inhibition, Replicate 1 (E. coli 0157 [5]; [Lf] 0.125 mg/mL): 0.1583 | Biofilm Inhibition, Replicate 2 (E. coli 0157 [5]; [Lf] 0.125 mg/mL): 0.1464 | Biofilm Inhibition, Replicate 3 (E. coli 0157 [5]; [Lf] 0.125 mg/mL): 0.5378 | Biofilm Inhibition, Replicate 1 (E. coli 0157 [5]; [Lf] 0.25 mg/mL): 0.1929 | Biofilm Inhibition, Replicate 2 (E. coli 0157 [5]; [Lf] 0.25 mg/mL): 0.2837 | Biofilm Inhibition, Replicate 3 (E. coli 0157 [5]; [Lf] 0.25 mg/mL): 0.358 | Biofilm Inhibition, Replicate 1 (E. coli 0157 [5]; [Lf] 0.5 mg/mL): 0.126 | Biofilm Inhibition, Replicate 2 (E. coli 0157 [5]; [Lf] 0.5 mg/mL): 0.192 | Biofilm Inhibition, Replicate 3 (E. coli 0157 [5]; [Lf] 0.5 mg/mL): 0.1942 | Biofilm Inhibition, Replicate 1 (E. coli 0157 [5]; [Lf] 1 mg/mL): 0.05367 | Biofilm Inhibition, Replicate 2 (E. coli 0157 [5]; [Lf] 1 mg/mL): 0.09846 | Biofilm Inhibition, Replicate 3 (E. coli 0157 [5]; [Lf] 1 mg/mL): 0.1465 | Biofilm Inhibition, Replicate 1 (E. coli 0157 [5]; [Lf] 2 mg/mL): 0.09652 | Biofilm Inhibition, Replicate 2 (E. coli 0157 [5]; [Lf] 2 mg/mL): 0.03678 | Biofilm Inhibition, Replicate 3 (E. coli 0157 [5]; [Lf] 2 mg/mL): 0.08427 | relative ratio of apo to holo-Lactoferrin, DSC peak pattern [6]: one lot was almost entirely holo-Lf and had two peaks in the holo-Lf range; also recorded: two faint peaks with slightly more holo-Lf than apo-Lf

B4: Lactoferrin (“Reagent”): reagent grade Lactoferrin, comparable research grade reference product (protein, UniProt P24627 20-708, looked up)
Lactotransferrin: B1 Lactotransferrin
EC50 (SARS-CoV-2): 140 nM
